Measured values: article PMC12042792, “Discovery of two novel cutinases from a gut yeast of plastic-eating mealworm for polyester depolymerization” (Applied and Environmental Microbiology, 2025)

What was measured:
Test in all cases: purified protein
Type in all cases: biochemical, Sakaguchia sp.
purified protein [1] = substrate: CC(=O)Oc1ccc([N+](=O)[O-])cc1
purified protein [2] = substrate: CCCC(=O)Oc1ccc([N+](=O)[O-])cc1
purified protein [3] = substrate: CCCCCC(=O)Oc1ccc([N+](=O)[O-])cc1
purified protein [4] = substrate: CCCCCCCC(=O)Oc1ccc([N+](=O)[O-])cc1
purified protein [5] = substrate: CCCCCCCCCC(=O)Oc1ccc([N+](=O)[O-])cc1
purified protein [6] = substrate: CCCCCCCCCCCC(=O)Oc1ccc([N+](=O)[O-])cc1
purified protein [7] = substrate: CCCCCCCCCCCCCC(=O)Oc1ccc([N+](=O)[O-])cc1
purified protein [8] = substrate: CCCCCCCCCCCCCCCC(=O)Oc1ccc([N+](=O)[O-])cc1
[9] = 50 mM Tris-HCl pH 7.5, optimal temperature (45 °C)
[10] = 50 mM Tris-HCl pH 7.5, optimal temperature (35 °C)

B1: SiCut2 (Sakaguchia sp.) (protein)
chain: TAIGERQLGCAPLELFHAAGTSEVGQGIIGRAYQSALPRAVSGATVTPVIYSTIAEYFTTVRAGAQTMQRQLTSRAAACPNTKFVLSGYSKGALVVHEVKLPAAIQSKVVAVTLFGDPKNGQFGSSVVPINNKACFFSFCNRGDVFCDRGISLAAHLAYATDGSVTTAARNIAECFNA
notes: no tag mentioned; diafiltered culture supernatant
Km (purified protein [1]; [9]): 6.18 ± 0.49 µM | kcat (purified protein [1]; [9]): 0.665 ± 0.07 s⁻¹ | kcat/Km (purified protein [1]; [9]): 108000 ± 11300 M⁻¹ s⁻¹ | Km (purified protein [2]; [9]): 2.82 ± 0.58 µM | kcat (purified protein [2]; [9]): 1.13 ± 0.066 s⁻¹ | kcat/Km (purified protein [2]; [9]): 401000 ± 5000 M⁻¹ s⁻¹ | Km (purified protein [3]; [9]): 1.44 ± 1.51 µM | kcat (purified protein [3]; [9]): 1.26 ± 0.0175 s⁻¹ | kcat/Km (purified protein [3]; [9]): 875000 ± 11700 M⁻¹ s⁻¹ | Km (purified protein [4]; [9]): 0.89 ± 0.12 µM | kcat (purified protein [4]; [9]): 2.079 ± 0.0025 s⁻¹ | kcat/Km (purified protein [4]; [9]): 2.344e+06 ± 13800 M⁻¹ s⁻¹ | Km (purified protein [5]; [9]): 2.47 ± 0.09 µM | kcat (purified protein [5]; [9]): 1.48 ± 0.0342 s⁻¹ | kcat/Km (purified protein [5]; [9]): 600700 ± 667 M⁻¹ s⁻¹ | Km (purified protein [6]; [9]): 2.22 ± 1.9 µM | kcat (purified protein [6]; [9]): 0.983 ± 0.035 s⁻¹ | kcat/Km (purified protein [6]; [9]): 443000 ± 4330 M⁻¹ s⁻¹ | Km (purified protein [7]; [9]): 4.44 ± 0.5 µM | kcat (purified protein [7]; [9]): 0.832 ± 0.0117 s⁻¹ | kcat/Km (purified protein [7]; [9]): 187000 ± 10000 M⁻¹ s⁻¹ | Km (purified protein [8]; [9]): 4.01 ± 1.3 µM | kcat (purified protein [8]; [9]): 0.603 ± 0.0417 s⁻¹ | kcat/Km (purified protein [8]; [9]): 150000 ± 3830 M⁻¹ s⁻¹

B2: SiCut1 (Sakaguchia sp.) (protein)
chain: AAIAERQSSACAPLELYHAAGTSESGLGTVGRAFQTALPREVQGATVSPLNYNTNAEYSSTVTAGAQTFQQLLTSRAAACPNTKFVLSGYSKGALVVHKVTLPSAVQSKVVAITVFGDPQAGQFGATTVPINNKACFFSFCNRGDTFCDRGGNFAAHLAYATDGSVTTASRNIAGCYRA
notes: as for B1
Km (purified protein [1]; [10]): 9.12 ± 0.04 µM | kcat (purified protein [1]; [10]): 0.3212 ± 0.00267 s⁻¹ | kcat/Km (purified protein [1]; [10]): 35200 ± 3000 M⁻¹ s⁻¹ | Km (purified protein [2]; [10]): 1.73 ± 0.99 µM | kcat (purified protein [2]; [10]): 0.796 ± 0.00367 s⁻¹ | kcat/Km (purified protein [2]; [10]): 459800 ± 2330 M⁻¹ s⁻¹ | Km (purified protein [3]; [10]): 0.66 ± 2.77 µM | kcat (purified protein [3]; [10]): 0.8588 ± 0.00717 s⁻¹ | kcat/Km (purified protein [3]; [10]): 1.305e+06 ± 1830 M⁻¹ s⁻¹ | Km (purified protein [4]; [10]): 2.01 ± 0.63 µM | kcat (purified protein [4]; [10]): 1.002 ± 0.00267 s⁻¹ | kcat/Km (purified protein [4]; [10]): 501000 ± 1500 M⁻¹ s⁻¹ | Km (purified protein [5]; [10]): 7.57 ± 0.01 µM | kcat (purified protein [5]; [10]): 0.672 ± 0.026 s⁻¹ | kcat/Km (purified protein [5]; [10]): 88800 ± 3170 M⁻¹ s⁻¹ | Km (purified protein [6]; [10]): 3.21 ± 0.63 µM | kcat (purified protein [6]; [10]): 0.7233 ± 0.00283 s⁻¹ | kcat/Km (purified protein [6]; [10]): 225000 ± 500 M⁻¹ s⁻¹ | Km (purified protein [7]; [10]): 3.46 ± 0.02 µM | kcat (purified protein [7]; [10]): 0.213 ± 0.00217 s⁻¹ | kcat/Km (purified protein [7]; [10]): 61700 ± 1330 M⁻¹ s⁻¹ | Km (purified protein [8]; [10]): 7.09 ± 0.27 µM | kcat (purified protein [8]; [10]): 0.2155 ± 0.002 s⁻¹ | kcat/Km (purified protein [8]; [10]): 30300 ± 2170 M⁻¹ s⁻¹
